Here are results for one sequence from PMC10779317.

In this data set the target is Dnmt3a-CD (mouse (murine)) (UniProt O88508). Nature of the data set: competition (inhibition of 30Uf/30Df methylation). To be noted: 20 mM HEPES-NaOH pH 7.5, 100 mM KCl, 1 mM EDTA, 1 mM DTT, 100 uM AdoHcy, 10 nM DNA (60 nM for PWWP); FP temperature not stated; methylation competition at 37 C ….
Chain of Dnmt3a-CD (mouse (murine)) (O88508 630-908): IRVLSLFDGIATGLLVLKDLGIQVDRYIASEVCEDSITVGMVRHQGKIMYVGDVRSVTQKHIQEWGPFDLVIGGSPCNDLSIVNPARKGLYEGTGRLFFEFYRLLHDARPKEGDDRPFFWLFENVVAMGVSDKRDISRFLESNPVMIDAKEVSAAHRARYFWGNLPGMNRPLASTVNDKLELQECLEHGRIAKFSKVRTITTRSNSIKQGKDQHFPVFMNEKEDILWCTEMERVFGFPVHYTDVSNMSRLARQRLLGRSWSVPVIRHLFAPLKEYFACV

In the case of TGGGGAGGGTGAGGAGTGTGGGGAAGG [27G4-mut], the IC50 (as a rule, the concentration that gives 50% inhibition) turned out to be 1100 nM.
